This data set deals with TGFβ1 (Homo sapiens) (UniProt P01137). The data set is described as follows: filter. The settings on record: 2'-F pyrimidines, 3' fixed sequence removed.
Chain of TGFβ1 (Homo sapiens) (P01137 279-390): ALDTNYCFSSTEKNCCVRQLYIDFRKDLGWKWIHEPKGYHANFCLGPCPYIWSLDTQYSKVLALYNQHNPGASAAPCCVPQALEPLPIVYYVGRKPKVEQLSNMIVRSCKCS

Regarding “GGGAGGGUUAACCGUUAAGACGGCGUNAUUUUGUCCCCAGACGACUCGCCCGA [30NtruNc 7]”, under “plateau 25%”, the Kd came to 2 nM.

Take “GGGAGAGGGGUCUGGAAUUUUUGGNUUACCCGUACGCCAGACGACUCGCCCGA [30NtruNc 9]”: for the setting “plateau 20%”, the Kd came out at 0.1 nM. As for “GGGAGCGGAAUUUUUGUGUAGACGUAUGCCGCUUUGNCCAGACGACUCGCCCGA [30NtruNc 37]”, the Kd (plateau 15%) is 0.083 nM. Still for that read-out and setting: the same measure for “GGGAGANCUGGUAAUUUUGGUUUANCCGUAUNCCCAGACGACUCGCCCGA [30NtruNc 32]”: 22 nM.
